{"source": "patent US20140219992", "proteins": {"B1": {"name": "wild-type human matrix metalloprotease 1 (hMMP-1), purified and trypsin-activated (protein)", "chain": "FVLTEGNPRWEQTHLTYRIENYTPDLPRADVDHAIEKAFQLWSNVTPLTFTKVSEGQADIMISFVRGDHRDNSPFDGPGGNLAHAFQPGPGIGGDAHFDEDERWTNNFREYNLHRVAAHELGHSLGLSHSTDIGALMYPSYTFSGDVQLAQDDIDGIQAIYGRSQNPVQPIGPQTPKACDSKLTFDAITTIRGEVMFFKDRFYMRTNPFYPEVELNFISVFWPQLPNGLEAAYEFADRDEVRFFKGNKYWAVQGQNVLHGYPKDIYSSFGFPRTVKHIDAALSEENTGKTYFFVANKYWRYDEYKRSMDPGYPKMIAHDFPGIGHKVDAVFMKDGFFYFFHGTRQYKFDPKTKRILTLQKANSWFNCRKN"}, "B2": {"name": "MMP-1 mutant GVSK (G159V/S208K), purified and trypsin-activated (protein)", "chain": "B1 chain with G79V, S128K"}}, "key": {"[1]": {"target": "T1, fluorogenic peptide substrate IX, Mca-K-P-L-G-L-Dpa-A-R-NH2", "T1 chain": "KPLGLAR"}, "[2]": {"target": "serum-derived protein (Zucker rat)"}}, "note": "Residue numbers refer to the chain shown, from its start. Numbers in names are those of the source.", "data": [{"protein": "B1", "values": [{"measurement": "KM (µM), enzyme kinetics at 1 mM Ca^2+, 37° C.", "setting": "[1]", "value": 20.6, "unit": "µM"}, {"measurement": "KM (µM), enzyme kinetics at 10 mM Ca^2+, 37° C.", "setting": "[1]", "value": 21.1, "unit": "µM"}, {"measurement": "enzymatic activity against the fluorogenic peptide substrate after incubation in 10% Zucker rat serum, 1 mM Ca^2+, 25° C.", "setting": "[2]", "value": "The activity of MMP-1 in 1 mM Ca^2+ buffer was unaffected by incubation with serum over the course of the study"}]}, {"protein": "B2", "values": [{"measurement": "KM (µM), enzyme kinetics at 1 mM Ca^2+, 37° C.", "setting": "[1]", "value": 16.5, "unit": "µM"}, {"measurement": "KM (µM), enzyme kinetics at 10 mM Ca^2+, 37° C.", "setting": "[1]", "value": 11, "unit": "µM"}, {"measurement": "enzymatic activity lost after 15 minutes in 10% Zucker rat serum, 1 mM Ca^2+, 25° C.", "setting": "[2]", "value": "After 15 minutes of serum incubation, one-third of the activity of GVSK in 1 mM Ca^2+ was lost"}, {"measurement": "enzymatic activity remaining after 30 minutes in 10% Zucker rat serum, 1 mM Ca^2+, 25° C.", "setting": "[2]", "value": "less than 50% of activity remained after 30 minutes"}, {"measurement": "enzymatic activity remaining after 2 hours in 10% Zucker rat serum, 1 mM Ca^2+, 25° C.", "setting": "[2]", "value": "only approximately 17% of the activity of GVSK in 1 mM Ca^2+ remained"}, {"measurement": "enzymatic activity remaining after 2 hours in 10% Zucker rat serum, 10 mM Ca^2+, 25° C.", "setting": "[2]", "value": "approximately 74% of the original activity remaining by the 2 hour time point"}]}]}
